Source: publication PMC5821843, “Development of a high-throughput assay for rapid screening of butanologenic strains” (Scientific Reports, 2018)

B1: Th ADH (Th ADH_ae) (Pseudothermotoga hypogea DSM 11164 = NBRC 106472) (protein)
chain: MENFVFHNPTKLIFGKGTIPKIGEEIKSFGIKKVLMLYGGGSIKKNGVYDQVVESLKRNGIEWVEVSGVKPNPVLSKVHEAIEVCRKENVEAVLGVGGGSVIDSAKAIAAGVLYEGDIWDAFAGKHKINNALPVFAILTISATGTEMNGNAVVTNEKTQEKWAISAKCLYPRVSIIDPTAQFSLPKEQTVYGAVDAIAHTLEYYFDGSDSDIQNQISESIIRSIMKSTEVLIDNPQDYEARANFAWCATIALNGLTAAGRKGGDWSCHKIEHSLSALYDIAHGAGLAIVFPAWMRYVYKQKPQQFERFAKHVFSIDAVGEEAILKGIDAFKAWLRKVGAPVSLRDVGIPAQDIDRIVENVMKQGPSFGVLKKLGKEDVKQILLIASQ
notes: ORF in pET-33b, N-terminal His6 tag (kept), E. coli BL21(DE3) Rosetta grown anaerobically, purified aerobically; ~42 kDa
B2: Sc ADH (Saccharomyces cerevisiae S288C) (protein)
chain: SIPETQKGVIFYESHGKLEYKDIPVPKPKANELLINVKYSGVCHTDLHAWHGDWPLPVKLPLVGGHEGAGVVVGMGENVKGWKIGDYAGIKWLNGSCMACEYCELGNESNCPHADLSGYTHDGSFQQYATADAVQAAHIPQGTDLAQVAPILCAGITVYKALKSANLMAGHWVAISGAAGGLGSLAVQYAKAMGYRVLGIDGGEGKEELFRSIGGEVFIDFTKEKDIVGAVLKATDGGAHGVINVSVSEAAIEASTRYVRANGTTVLVGMPAGAKCCSDVFNQVVKSISIVGSYVGNRADTREALDFFARGLVKSPIKVVGLSTLPEIYEKMEKGQIVGRYVVDTSK

Assays:
[1] = substrate: CCCCO; test: purified protein; assay type: biochemical, Pseudothermotoga hypogea; settings: NADP+ co-substrate, CAPS pH 11.6, 1 mM DTT, 0.1 mM FeCl2, 80 °C, anaerobic, aerobically purified enzyme
[2] = substrate: CCO; test: purified protein; settings: 330 µM NAD+, 8 µM PMS, 330 µM NBT, 0.1% gelatin, 100 mM Tris-HCl pH 8.6, ~22 °C

| Protein | Km [1] [mM] | kcat [1] [s⁻¹] | Km [2] [mM] | kcat [2] [s⁻¹] |
| --- | --- | --- | --- | --- |
| B1 | 34.1 ± 0.6 | 3.943 ± 0.0867 |  |  |
| B2 |  |  | 22.7 ± 2.9 | 20.5 ± 2.37 |
